Measurements taken from PMC3991606, “Targeting NAD^+ Metabolism in the Human Malaria Parasite Plasmodium falciparum” (PLoS ONE, 2014).

Columns and labels:
[1] = target: T1, PfNMNAT (Plasmodium falciparum, UniProt Q8IE38); experiment: pyrophosphate release assay, […] nm, […] min preincubation with inhibitor; format: biochemical; conditions: 50 µM 1a-a versus 2% DMSO control
T1 construct: gene PF3D7_1327600
T1 sequence (Q8IE38 1-204): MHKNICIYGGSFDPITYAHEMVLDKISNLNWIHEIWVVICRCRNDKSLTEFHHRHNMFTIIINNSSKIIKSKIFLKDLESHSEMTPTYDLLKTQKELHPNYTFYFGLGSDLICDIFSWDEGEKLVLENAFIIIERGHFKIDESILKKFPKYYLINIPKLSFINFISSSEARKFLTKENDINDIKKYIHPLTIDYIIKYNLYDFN

[2] = substrate: O=C([O-])c1ccc[n+]([C@@H]2O[C@H](COP(=O)(O)O)[C@@H](O)[C@H]2O)c1; experiment: purified protein; format: biochemical, Plasmodium falciparum; conditions: 500 µM ATP, 100 mM HEPES, 10 mM MgCl2, pH 7.5, apparent Km
[3] = substrate: Nc1ncnc2c1ncn2[C@@H]1O[C@H](COP(=O)(O)OP(=O)(O)OP(=O)(O)O)[C@@H](O)[C@H]1O; experiment: purified protein; format: biochemical, Plasmodium falciparum; conditions: 500 µM NaMN, 100 mM HEPES, 10 mM MgCl2, pH 7.5, apparent Km

Molecule | inhibition at 50 μM [1] | Km [2] | Km [3]
O=C(CCC(=O)Nc1ccc(Br)cc1)N/N=C/c1c2ccccc2cc2ccccc12 [1a-a] | 1a-a exhibits specific activity against purified his-PfNMNAT (Figure 4A) |  | 
PfNMNAT (Plasmodium falciparum 3D7) (protein) MHKNICIYGGSFDPITYAHEMVLDKISNLNWIHEIWVVICRCRNDKSLTEFHHRHNMFTIIINNSSKIIKSKIFLKDLESHSEMTPTYDLLKTQKELHPNYTFYFGLGSDLICDIFSWDEGEKLVLENAFIIIERGHFKIDESILKKFPKYYLINIPKLSFINFISSSEARKFLTKENDINDIKKYIHPLTIDYIIKYNLYDFN |  | 35.8 ± 5.1 µM | 19.9 ± 6.7 µM
